Measured values taken from US20180155451A1 (published 2018).

T1: FcγRIIa R (extracellular domain with a His tag at the C terminus) (human, UniProt P12318 34-217)
T1 construct: extracellular domain; expressed in FreeStyle293 cells; also called FcgRIIa R; FcγRIIa type R; not shown: His tag at the C terminus
T1 sequence (looked up): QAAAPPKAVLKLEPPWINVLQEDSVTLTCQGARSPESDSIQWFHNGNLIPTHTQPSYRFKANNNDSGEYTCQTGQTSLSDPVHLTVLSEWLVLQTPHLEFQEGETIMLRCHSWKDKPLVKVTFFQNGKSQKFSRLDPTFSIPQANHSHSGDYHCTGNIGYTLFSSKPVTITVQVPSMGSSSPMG

B1: GpH7-B3 variant S267_09D/GpL16-k0 (antibody, human IgG1, kappa)
heavy: not shown
light: DIVMTQSPLSLPVTPGEPASISCQASESLVHSNRNTYLHWYLQKPGQSPQLLIYKVSNRFSGVPDRFSGSGSGTDFTLKISRVEAEDVGVYYCSQNTHVPPTFGQGTKVEIERTVAAPSVFIFPPSDEQLKSGTASVVCLLNNFYPREAKVQWKVDNALQSGNSQESVTEQDSKDSTYSLSSTLTLSKADYEKHKVYACEVTHQGLSSPVTKSFNRGEC
notes: homodimerized; mutation in both H chains; also called Ho Ab
B2: GpH7-B3 variant S267_19Q/GpL16-k0 (antibody, human IgG1, kappa)
heavy: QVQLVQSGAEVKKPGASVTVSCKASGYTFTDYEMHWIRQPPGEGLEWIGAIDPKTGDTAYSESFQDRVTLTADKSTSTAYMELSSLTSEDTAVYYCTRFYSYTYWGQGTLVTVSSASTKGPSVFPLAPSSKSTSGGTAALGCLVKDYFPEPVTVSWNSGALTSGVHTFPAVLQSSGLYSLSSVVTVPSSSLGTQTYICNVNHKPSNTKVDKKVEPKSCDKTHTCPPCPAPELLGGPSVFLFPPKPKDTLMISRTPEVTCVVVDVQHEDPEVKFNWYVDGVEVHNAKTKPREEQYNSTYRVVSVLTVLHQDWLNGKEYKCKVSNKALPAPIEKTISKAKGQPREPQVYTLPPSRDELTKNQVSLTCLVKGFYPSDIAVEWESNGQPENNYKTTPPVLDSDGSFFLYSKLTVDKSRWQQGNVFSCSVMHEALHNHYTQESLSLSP
light: B1 light
notes: as for B1
B3: GpH7-B3 variant S298_08L/GpL16-k0 (antibody, human IgG1, kappa)
heavy: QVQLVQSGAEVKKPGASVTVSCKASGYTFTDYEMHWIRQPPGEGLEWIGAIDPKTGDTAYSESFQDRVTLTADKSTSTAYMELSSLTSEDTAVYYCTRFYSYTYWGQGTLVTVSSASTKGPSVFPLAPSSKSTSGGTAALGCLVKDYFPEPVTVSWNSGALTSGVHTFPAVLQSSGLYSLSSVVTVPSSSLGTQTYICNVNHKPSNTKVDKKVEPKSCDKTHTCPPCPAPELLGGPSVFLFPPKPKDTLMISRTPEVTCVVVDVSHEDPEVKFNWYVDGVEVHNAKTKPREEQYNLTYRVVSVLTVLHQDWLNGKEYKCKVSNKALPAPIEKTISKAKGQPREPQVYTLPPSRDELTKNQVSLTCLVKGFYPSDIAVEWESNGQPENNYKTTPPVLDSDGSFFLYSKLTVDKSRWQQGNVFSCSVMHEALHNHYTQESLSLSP
light: B1 light
notes: as for B1
B4: GpH7-B3 variant S324_06M/GpL16-k0 (antibody, human IgG1, kappa)
heavy: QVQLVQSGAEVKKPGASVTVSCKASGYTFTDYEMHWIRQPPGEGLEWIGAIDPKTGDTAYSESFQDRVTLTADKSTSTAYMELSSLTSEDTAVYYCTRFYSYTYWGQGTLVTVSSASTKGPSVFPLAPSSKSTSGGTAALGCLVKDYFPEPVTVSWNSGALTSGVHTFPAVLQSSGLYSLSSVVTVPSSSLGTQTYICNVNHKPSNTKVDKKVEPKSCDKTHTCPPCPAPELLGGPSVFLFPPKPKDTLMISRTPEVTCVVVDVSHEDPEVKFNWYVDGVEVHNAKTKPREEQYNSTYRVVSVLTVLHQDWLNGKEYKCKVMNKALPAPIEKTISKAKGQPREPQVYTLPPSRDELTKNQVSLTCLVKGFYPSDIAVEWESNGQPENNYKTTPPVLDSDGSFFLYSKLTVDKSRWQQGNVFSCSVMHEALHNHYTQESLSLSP
light: B1 light
notes: as for B1
B5: GpH7-B3 variant S337_03V/GpL16-k0 (antibody, human IgG1, kappa)
heavy: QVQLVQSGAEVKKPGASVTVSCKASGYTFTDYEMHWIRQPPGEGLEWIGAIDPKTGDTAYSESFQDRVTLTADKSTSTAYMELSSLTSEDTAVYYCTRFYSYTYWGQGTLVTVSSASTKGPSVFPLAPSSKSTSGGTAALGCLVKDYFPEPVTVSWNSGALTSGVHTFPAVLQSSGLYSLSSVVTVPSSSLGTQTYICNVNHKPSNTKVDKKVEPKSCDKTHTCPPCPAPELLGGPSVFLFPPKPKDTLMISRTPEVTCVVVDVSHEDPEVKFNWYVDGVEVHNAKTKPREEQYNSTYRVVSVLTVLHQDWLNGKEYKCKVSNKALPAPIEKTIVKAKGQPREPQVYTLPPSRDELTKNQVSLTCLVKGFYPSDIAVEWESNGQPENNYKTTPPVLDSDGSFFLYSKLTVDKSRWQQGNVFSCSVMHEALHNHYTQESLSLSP
light: B1 light
notes: as for B1
B6: GpH7-B3 variant S337_06M/GpL16-k0 (antibody, human IgG1, kappa)
heavy: not shown
light: B1 light
notes: as for B1
B7: GpH7-B3 variant S337_07I/GpL16-k0 (antibody, human IgG1, kappa)
heavy: not shown
light: B1 light
notes: as for B1
B8: GpH7-B3 variant S337_09D/GpL16-k0 (antibody, human IgG1, kappa)
heavy: not shown
light: B1 light
notes: as for B1
B9: GpH7-B3 variant S337_10E/GpL16-k0 (antibody, human IgG1, kappa)
heavy: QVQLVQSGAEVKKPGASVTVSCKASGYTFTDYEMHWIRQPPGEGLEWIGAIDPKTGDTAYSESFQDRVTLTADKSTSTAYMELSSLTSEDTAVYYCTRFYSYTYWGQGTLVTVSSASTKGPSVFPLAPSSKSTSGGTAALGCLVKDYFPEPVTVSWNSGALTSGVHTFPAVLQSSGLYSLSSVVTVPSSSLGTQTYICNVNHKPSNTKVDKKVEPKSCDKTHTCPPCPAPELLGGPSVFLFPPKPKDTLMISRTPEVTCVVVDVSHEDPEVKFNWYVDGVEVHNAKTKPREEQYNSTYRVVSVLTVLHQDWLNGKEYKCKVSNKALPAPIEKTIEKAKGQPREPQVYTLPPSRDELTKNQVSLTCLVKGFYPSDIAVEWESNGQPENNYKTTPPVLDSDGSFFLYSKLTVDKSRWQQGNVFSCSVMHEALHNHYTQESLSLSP
light: B1 light
notes: as for B1
B10: GpH7-B3 variant S337_15Y/GpL16-k0 (antibody, human IgG1, kappa)
heavy: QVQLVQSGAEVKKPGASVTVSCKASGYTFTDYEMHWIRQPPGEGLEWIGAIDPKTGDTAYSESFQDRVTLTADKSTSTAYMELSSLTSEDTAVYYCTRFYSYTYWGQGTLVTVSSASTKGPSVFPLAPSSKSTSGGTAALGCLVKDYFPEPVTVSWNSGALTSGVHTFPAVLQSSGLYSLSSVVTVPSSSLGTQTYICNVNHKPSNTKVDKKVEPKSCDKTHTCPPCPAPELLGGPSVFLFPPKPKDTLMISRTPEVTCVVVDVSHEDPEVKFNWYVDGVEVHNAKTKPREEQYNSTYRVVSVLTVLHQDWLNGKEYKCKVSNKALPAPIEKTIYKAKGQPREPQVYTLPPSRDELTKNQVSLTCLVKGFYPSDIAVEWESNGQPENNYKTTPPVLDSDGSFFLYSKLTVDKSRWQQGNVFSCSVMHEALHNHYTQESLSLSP
light: B1 light
notes: as for B1
B11: GpH7-B3 variant S337_16H/GpL16-k0 (antibody, human IgG1, kappa)
heavy: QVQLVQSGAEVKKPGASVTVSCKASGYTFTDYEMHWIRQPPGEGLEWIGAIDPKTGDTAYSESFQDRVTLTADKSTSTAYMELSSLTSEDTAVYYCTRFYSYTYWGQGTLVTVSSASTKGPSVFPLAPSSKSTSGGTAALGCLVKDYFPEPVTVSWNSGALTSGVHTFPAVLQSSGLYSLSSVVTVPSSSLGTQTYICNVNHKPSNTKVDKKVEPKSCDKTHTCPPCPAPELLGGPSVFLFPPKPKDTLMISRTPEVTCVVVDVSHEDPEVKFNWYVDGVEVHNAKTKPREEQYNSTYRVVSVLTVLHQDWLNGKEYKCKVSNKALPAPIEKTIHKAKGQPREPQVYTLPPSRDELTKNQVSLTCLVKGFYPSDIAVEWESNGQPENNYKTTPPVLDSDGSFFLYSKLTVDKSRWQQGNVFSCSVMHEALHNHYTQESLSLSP
light: B1 light
notes: as for B1
B12: GpH7-B3 variant S337_18N/GpL16-k0 (antibody, human IgG1, kappa)
heavy: not shown
light: B1 light
notes: as for B1
B13: GpH7-B3 variant S337_19Q/GpL16-k0 (antibody, human IgG1, kappa)
heavy: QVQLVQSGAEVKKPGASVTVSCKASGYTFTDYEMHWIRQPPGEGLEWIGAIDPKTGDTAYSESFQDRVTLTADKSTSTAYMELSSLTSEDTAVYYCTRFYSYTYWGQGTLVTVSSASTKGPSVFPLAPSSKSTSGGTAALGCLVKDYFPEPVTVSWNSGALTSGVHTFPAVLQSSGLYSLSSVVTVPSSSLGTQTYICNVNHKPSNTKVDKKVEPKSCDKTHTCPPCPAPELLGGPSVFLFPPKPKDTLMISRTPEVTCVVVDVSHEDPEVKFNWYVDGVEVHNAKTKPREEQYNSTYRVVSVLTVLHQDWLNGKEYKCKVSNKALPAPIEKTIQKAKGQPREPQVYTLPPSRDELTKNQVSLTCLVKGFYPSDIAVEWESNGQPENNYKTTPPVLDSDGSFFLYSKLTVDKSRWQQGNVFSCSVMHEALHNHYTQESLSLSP
light: B1 light
notes: as for B1
B14: GpH7-B3 variant S337_20W/GpL16-k0 (antibody, human IgG1, kappa)
heavy: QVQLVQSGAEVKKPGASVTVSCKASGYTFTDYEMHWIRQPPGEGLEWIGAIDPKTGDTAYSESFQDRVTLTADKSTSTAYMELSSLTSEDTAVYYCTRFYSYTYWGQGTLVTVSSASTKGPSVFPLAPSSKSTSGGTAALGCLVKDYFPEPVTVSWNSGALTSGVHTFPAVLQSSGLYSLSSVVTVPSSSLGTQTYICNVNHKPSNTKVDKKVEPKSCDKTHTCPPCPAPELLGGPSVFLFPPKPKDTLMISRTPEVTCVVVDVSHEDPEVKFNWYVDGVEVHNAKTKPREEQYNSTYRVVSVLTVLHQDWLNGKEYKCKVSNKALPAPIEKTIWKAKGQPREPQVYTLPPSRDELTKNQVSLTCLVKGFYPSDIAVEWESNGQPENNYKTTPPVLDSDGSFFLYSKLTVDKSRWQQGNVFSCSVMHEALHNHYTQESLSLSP
light: B1 light
notes: as for B1
B15: GpH7-B3 variant T335_02A/GpL16-k0 (antibody, human IgG1, kappa)
heavy: not shown
light: B1 light
notes: as for B1
B16: GpH7-B3 variant T335_05P/GpL16-k0 (antibody, human IgG1, kappa)
heavy: not shown
light: B1 light
notes: as for B1
B17: GpH7-B3 variant T335_07I/GpL16-k0 (antibody, human IgG1, kappa)
heavy: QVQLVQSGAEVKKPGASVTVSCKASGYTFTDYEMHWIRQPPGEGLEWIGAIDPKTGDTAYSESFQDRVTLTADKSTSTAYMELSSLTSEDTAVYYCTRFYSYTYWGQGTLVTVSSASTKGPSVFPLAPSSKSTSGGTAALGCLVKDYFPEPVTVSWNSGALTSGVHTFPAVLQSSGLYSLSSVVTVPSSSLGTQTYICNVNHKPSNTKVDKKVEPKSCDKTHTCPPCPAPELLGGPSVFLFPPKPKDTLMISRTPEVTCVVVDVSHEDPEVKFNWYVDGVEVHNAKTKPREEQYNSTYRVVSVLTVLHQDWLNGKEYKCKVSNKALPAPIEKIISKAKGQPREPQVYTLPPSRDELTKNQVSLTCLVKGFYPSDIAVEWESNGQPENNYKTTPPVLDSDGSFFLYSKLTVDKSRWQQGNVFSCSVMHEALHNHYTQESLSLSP
light: B1 light
notes: as for B1
B18: GpH7-B3 variant T335_10E/GpL16-k0 (antibody, human IgG1, kappa)
heavy: not shown
light: B1 light
notes: as for B1
B19: GpH7-B3 variant T335_13S/GpL16-k0 (antibody, human IgG1, kappa)
heavy: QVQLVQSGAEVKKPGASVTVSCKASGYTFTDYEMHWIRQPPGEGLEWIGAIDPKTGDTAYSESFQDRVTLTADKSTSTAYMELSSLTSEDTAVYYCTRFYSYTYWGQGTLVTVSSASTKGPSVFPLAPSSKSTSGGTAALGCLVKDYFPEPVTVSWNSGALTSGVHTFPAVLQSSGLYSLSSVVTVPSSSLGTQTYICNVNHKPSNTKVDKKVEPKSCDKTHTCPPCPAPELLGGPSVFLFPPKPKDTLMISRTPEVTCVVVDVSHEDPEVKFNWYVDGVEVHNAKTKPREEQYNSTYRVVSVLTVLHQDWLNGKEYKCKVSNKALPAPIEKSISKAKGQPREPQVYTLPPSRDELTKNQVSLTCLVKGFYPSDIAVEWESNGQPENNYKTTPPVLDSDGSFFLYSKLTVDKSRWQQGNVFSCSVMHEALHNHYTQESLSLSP
light: B1 light
notes: as for B1
B20: GpH7-A5/GpH7-B3 variant S337_02A/GpL16-k0 (antibody, human IgG1, kappa)
heavy 1: not shown
heavy 2: not shown
light: B1 light
notes: heterodimerized; mutation in one H chain; also called He Ab
B21: GpH7-A5/GpH7-B3 variant A327_09D/GpL16-k0 (antibody, human IgG1, kappa)
heavy 1: not shown
heavy 2: not shown
light: B1 light
notes: as for B20
B22: GpH7-A5/GpH7-B3 variant A327_10E/GpL16-k0 (antibody, human IgG1, kappa)
heavy 1: not shown
heavy 2: not shown
light: B1 light
notes: as for B20
B23: GpH7-A5/GpH7-B3 variant A330_01G/GpL16-k0 (antibody, human IgG1, kappa)
heavy 1: not shown
heavy 2: not shown
light: B1 light
notes: as for B20
B24: GpH7-A5/GpH7-B3 variant A330_12R/GpL16-k0 (antibody, human IgG1, kappa)
heavy 1: not shown
heavy 2: not shown
light: B1 light
notes: as for B20
B25: GpH7-A5/GpH7-B3 variant G237_04F/GpL16-k0 (antibody, human IgG1, kappa)
heavy 1: not shown
heavy 2: not shown
light: B1 light
notes: as for B20
B26: GpH7-A5/GpH7-B3 variant G237_20W/GpL16-k0 (antibody, human IgG1, kappa)
heavy 1: not shown
heavy 2: not shown
light: B1 light
notes: as for B20
B27: GpH7-A5/GpH7-B3 variant H268_01G/GpL16-k0 (antibody, human IgG1, kappa)
heavy 1: not shown
heavy 2: not shown
light: B1 light
notes: as for B20
B28: GpH7-A5/GpH7-B3 variant I332_06M/GpL16-k0 (antibody, human IgG1, kappa)
heavy 1: not shown
heavy 2: not shown
light: B1 light
notes: as for B20
B29: GpH7-A5/GpH7-B3 variant I336_08L/GpL16-k0 (antibody, human IgG1, kappa)
heavy 1: not shown
heavy 2: not shown
light: B1 light
notes: as for B20

Each binder was assayed against T1, FcγRIIa R (extracellular domain with a …) (assay: SPR Biacore, relative binding).
With B1 the Ho/Con_2aR was 167 % of GpH7-B3/GpL16-k0 (=100). B2 was tested, and the Ho/Con_2aR was 110 % of GpH7-B3/GpL16-k0 (=100). B3 was tested, and the Ho/Con_2aR was 101 % of GpH7-B3/GpL16-k0 (=100). With B4 the Ho/Con_2aR was 118 % of GpH7-B3/GpL16-k0 (=100). With B5 the Ho/Con_2aR was 102 % of GpH7-B3/GpL16-k0 (=100). B6 was tested, and the Ho/Con_2aR was 101 % of GpH7-B3/GpL16-k0 (=100). In the case of B7, the Ho/Con_2aR is reported as 103 % of GpH7-B3/GpL16-k0 (=100). B8 was tested, and the Ho/Con_2aR was 114 % of GpH7-B3/GpL16-k0 (=100). B9 was tested, and the Ho/Con_2aR was 110 % of GpH7-B3/GpL16-k0 (=100). In the case of B10, the Ho/Con_2aR is reported as 100 % of GpH7-B3/GpL16-k0 (=100). For B11, the Ho/Con_2aR was 107 % of GpH7-B3/GpL16-k0 (=100). In the case of B12, the Ho/Con_2aR is reported as 103 % of GpH7-B3/GpL16-k0 (=100). In the case of B13, the Ho/Con_2aR is reported as 102 % of GpH7-B3/GpL16-k0 (=100). For B14, the Ho/Con_2aR was 105 % of GpH7-B3/GpL16-k0 (=100). For B15, the Ho/Con_2aR was 102 % of GpH7-B3/GpL16-k0 (=100). In the case of B16, the Ho/Con_2aR is reported as 104 % of GpH7-B3/GpL16-k0 (=100). In the case of B17, the Ho/Con_2aR is reported as 107 % of GpH7-B3/GpL16-k0 (=100). In the case of B18, the Ho/Con_2aR is reported as 109 % of GpH7-B3/GpL16-k0 (=100). B19 was tested, and the Ho/Con_2aR was 102 % of GpH7-B3/GpL16-k0 (=100). In the case of B20, the He/Con_2aR is reported as 105 % of GpH7-A5/GpH7-B3/GpL16-k0 (=100). B21 was tested, and the He/Con_2aR was 124 % of GpH7-A5/GpH7-B3/GpL16-k0 (=100). With B22 the He/Con_2aR was 110 % of GpH7-A5/GpH7-B3/GpL16-k0 (=100). In the case of B23, the He/Con_2aR is reported as 109 % of GpH7-A5/GpH7-B3/GpL16-k0 (=100). B24 was tested, and the He/Con_2aR was 104 % of GpH7-A5/GpH7-B3/GpL16-k0 (=100). With B25 the He/Con_2aR was 126 % of GpH7-A5/GpH7-B3/GpL16-k0 (=100). In the case of B26, the He/Con_2aR is reported as 138 % of GpH7-A5/GpH7-B3/GpL16-k0 (=100). B27 was tested, and the He/Con_2aR was 124 % of GpH7-A5/GpH7-B3/GpL16-k0 (=100). B28 was tested, and the He/Con_2aR was 109 % of GpH7-A5/GpH7-B3/GpL16-k0 (=100). B29 was tested, and the He/Con_2aR was 110 % of GpH7-A5/GpH7-B3/GpL16-k0 (=100).
